According to patent publication US5118793A, “Modified heparin cofactor II” (Washington University, priority 1991, dated 1992):
Numbering of substitutions follows the chain as printed.

B1: native rHCII: recombinant full-length heparin cofactor II expressed in E. coli; amino acid sequence identical to HCII purified from human plasma (protein, UniProt P05546 20-499, looked up)
Heparin cofactor 2: GSKGPLDQLEKGGETAQSADPQWEQLNNKNLSMPLLPADFHKENTVTNDWIPEGEEDDDYLDLEKIFSEDDDYIDIVDSLSVSPTDSDVSAGNILQLFHGKSRIQRLNILNAKFAFNLYRVLKDQVNTFDNIFIAPVGISTAMGMISLGLKGETHEQVHSILHFKDFVNASSKYEITTIHNLFRKLTHRLFRRNFGYTLRSVNDLYIQKQFPILLDFKTKVREYYFAEAQIADFSDPAFISKTNNHIMKLTKGLIKDALENIDPATQMMILNCIYFKGSWVNKFPVEMTHNHNFRLNEREVVKVSMMQTKGNFLAANDQELDCDILQLEYVGGISMLIVVPHKMSGMKTLEAQLTPRVVERWQKSMTNRTREVLLPKFKLEKNYNLVESLKLMGIRMLFDKNGNMAGISDQRIAIDLFKHQGTITVNEEGTQATTVTTVGFMPLSTQVRFTVDRPFLFLIYEHRTSCLLFMGRVANPSRS
modifications: recombinant, E. coli
B2: rHCII(Leu444 →Arg): heparin cofactor II in which the leucine residue at position 444 is replaced by arginine; recombinant, expressed in E. coli (protein, UniProt P05546 20-499, looked up, variant L444R)
Heparin cofactor 2: B1 Heparin cofactor 2 with L444R
modifications: recombinant, E. coli-expressed
notes: heparin cofactor II in which the leucine residue at position 444 is replaced by arginine; recombinant, expressed in E. coli
B3: HCII: heparin cofactor II, a 65,600 dalton plasma glycoprotein, serpin that inhibits thrombin (protein, UniProt P05546 20-499, looked up)
Heparin cofactor 2: B1 Heparin cofactor 2

What was measured:
[1] = test system: chymotrypsin; test: Inhibition of chymotrypsin by rHCII, chromogenic substrate assay; type: biochemical, human
Experimental: Inhibition of proteases by rHCII--Protease inhibition by rHCII was determined by incubating 90 μl of the partially purified rHCII (or the corresponding heparin-Sepharose fractions of a control lysate from cells transformed with pMON-5840) with 5 μl of the protease and 5 μl of either glycosaminoglycan or water in a disposable polystyrene cuvette at room temperature. Final concentrations of the proteases were as follows: thrombin, 15 nM; chymotrypsin, 21 nM; factor Xa, 16 nM; and kallikrein, 10 nM. After a specified period of time from 5 seconds (s) to 150 min, 300-500 μl of the appropriate chromogenic substrate was added, and the absorbance at 405 nm was recorded continuously for 100 s. The rate of change of absorbance was proportional to the concentration of active protease remaining in the incubation. […]
Protease inhibition by rHCII in the absence of a glycosaminoglycan--The time courses of inhibition of thrombin, factor Xa, kallikrein, and chymotrypsin by native rHCII(Leu444 →Arg) in the absence of a glycosaminoglycan are indicated in FIG. 3. […] The pseudo-first-order rate constants (k1) for protease inhibition were determined by fitting the data to the following equation: k1 t=1n([P]0 /[P]t), in which [P]0 =initial prolease activity and [P]t =protease activity at time=t. The second-order rate constants (k2) were then calculated by dividing k by the initial rHCII concentration. […]

[2] = test system: thrombin; test: Inhibition of thrombin by rHCII, chromogenic substrate Chromozym TH, second-order rate constants; type: biochemical, human; details: for Increase in the rate constant for thrombin inhibition produced by dermatan sulfate: dermatan sulfate versus no GAG; for Increase in the rate constant for thrombin inhibition produced by heparin: heparin versus no GAG
Experimental: Inhibition of proteases by rHCII--Protease inhibition by rHCII was determined by incubating 90 μl of the partially purified rHCII (or the corresponding heparin-Sepharose fractions of a control lysate from cells transformed with pMON-5840) with 5 μl of the protease and 5 μl of either glycosaminoglycan or water in a disposable polystyrene cuvette at room temperature. Final concentrations of the proteases were as follows: thrombin, 15 nM; chymotrypsin, 21 nM; factor Xa, 16 nM; and kallikrein, 10 nM. After a specified period of time from 5 seconds (s) to 150 min, 300-500 μl of the appropriate chromogenic substrate was added, and the absorbance at 405 nm was recorded continuously for 100 s. The rate of change of absorbance was proportional to the concentration of active protease remaining in the incubation. The amounts added and concentrations of each substrate were as follows: Chromozym TH (thrombin), 500 μl, 0.1 mM; N-succinyl-Ala-Ala-Pro-Phe-p-nitroanilde (chymotrypsin), 300 μl, 0.5 mM; Spectrozyme FXa (factor Xa), 400 μl, 0.125 mM; and S-2302 (kallikrein), 300 μl, 0.4 mM.
Protease inhibition by rHCII in the absence of a glycosaminoglycan--The time courses of inhibition of thrombin, factor Xa, kallikrein, and chymotrypsin by native rHCII(Leu444 →Arg) in the absence of a glycosaminoglycan are indicated in FIG. 3. The incubations were performed under pseudo-first-order conditions, such that the initial concentration of rHCII was greater than the concentration of protease. The pseudo-first-order rate constants (k1) for protease inhibition were determined by fitting the data to the following equation: k1 t=1n([P]0 /[P]t), in which [P]0 =initial prolease activity and [P]t =protease activity at time=t. The second-order rate constants (k2) were then calculated by dividing k by the initial rHCII concentration. It was observed that rHCII(Leu444 →Arg) inhibits thrombin almost 100 times more rapidly than native rHCII in the absence of a glycosaminoglycan Furthermore, rHCII(Leu444 →Arg) inhibits factor Xa and kallikrein, while inhibition of these proteases by native rHCII is undetectable.
Inhibition of thrombin by rHCII in the presence dermatan sulfate or heparin--The time course of inhibition of thrombin was determined in the presence of various concentrations of dermatan sulfate or heparin.

[3] = test system: thrombin; details: cited from earlier work

Molecule | Effect of dermatan sulfate on the rate of inhibition of chymotrypsin [1] | Increase in the rate constant for thrombin inhibition produced by dermatan sulfate [2] | Increase in the rate constant for thrombin inhibition produced by heparin [2] | Increase of the rate of thrombin inhibition by heparin and dermatan sulfate [3]
B1 | does not significantly increase | ~3500 fold | about 40 fold | 
B2 |  | much smaller effect | minimal effect | 
B3 |  |  |  | ~ 1000 fold
